# IntAct's records for PubMed 19219046
# B1: ATP-dependent RNA helicase DDX19B (Homo sapiens), Q9UMR2-1 (parent)
# chain: MATDSWALAVDEQEAAAESLSNLHLKEEKIKPDTNGAVVKTNANAEKTDEEEKEDRAAQSLLNKLIRSNLVDNTNQVEVLQRDPNSPLYSVKSFEELRLKPQLLQGVYAMGFNRPSKIQENALPLMLAEPPQNLIAQSQSGTGKTAAFVLAMLSQVEPANKYPQCLCLSPTYELALQTGKVIEQMGKFYPELKLAYAVRGNKLERGQKISEQIVIGTPGTVLDWCSKLKFIDPKKIKVFVLDEADVMIATQGHQDQSIRIQRMLPRNCQMLLFSATFEDSVWKFAQKVVPDPNVIKLKREEETLDTIKQYYVLCSSRDEKFQALCNLYGAITIAQAMIFCHTRKTASWLAAELSKEGHQVALLSGEMMVEQRAAVIERFREGKEKVLVTTNVCARGIDVEQVSVVINFDLPVDKDGNPDNETYLHRIGRTGRFGKRGLAVNMVDSKHSMNILNRIQEHFNKKIERLDTDDLDEIEKIAN
# Variants of: B1
# Settings: with NUP214, P35658-1
# Chain of NUP214, P35658-1 (P35658 whole entry): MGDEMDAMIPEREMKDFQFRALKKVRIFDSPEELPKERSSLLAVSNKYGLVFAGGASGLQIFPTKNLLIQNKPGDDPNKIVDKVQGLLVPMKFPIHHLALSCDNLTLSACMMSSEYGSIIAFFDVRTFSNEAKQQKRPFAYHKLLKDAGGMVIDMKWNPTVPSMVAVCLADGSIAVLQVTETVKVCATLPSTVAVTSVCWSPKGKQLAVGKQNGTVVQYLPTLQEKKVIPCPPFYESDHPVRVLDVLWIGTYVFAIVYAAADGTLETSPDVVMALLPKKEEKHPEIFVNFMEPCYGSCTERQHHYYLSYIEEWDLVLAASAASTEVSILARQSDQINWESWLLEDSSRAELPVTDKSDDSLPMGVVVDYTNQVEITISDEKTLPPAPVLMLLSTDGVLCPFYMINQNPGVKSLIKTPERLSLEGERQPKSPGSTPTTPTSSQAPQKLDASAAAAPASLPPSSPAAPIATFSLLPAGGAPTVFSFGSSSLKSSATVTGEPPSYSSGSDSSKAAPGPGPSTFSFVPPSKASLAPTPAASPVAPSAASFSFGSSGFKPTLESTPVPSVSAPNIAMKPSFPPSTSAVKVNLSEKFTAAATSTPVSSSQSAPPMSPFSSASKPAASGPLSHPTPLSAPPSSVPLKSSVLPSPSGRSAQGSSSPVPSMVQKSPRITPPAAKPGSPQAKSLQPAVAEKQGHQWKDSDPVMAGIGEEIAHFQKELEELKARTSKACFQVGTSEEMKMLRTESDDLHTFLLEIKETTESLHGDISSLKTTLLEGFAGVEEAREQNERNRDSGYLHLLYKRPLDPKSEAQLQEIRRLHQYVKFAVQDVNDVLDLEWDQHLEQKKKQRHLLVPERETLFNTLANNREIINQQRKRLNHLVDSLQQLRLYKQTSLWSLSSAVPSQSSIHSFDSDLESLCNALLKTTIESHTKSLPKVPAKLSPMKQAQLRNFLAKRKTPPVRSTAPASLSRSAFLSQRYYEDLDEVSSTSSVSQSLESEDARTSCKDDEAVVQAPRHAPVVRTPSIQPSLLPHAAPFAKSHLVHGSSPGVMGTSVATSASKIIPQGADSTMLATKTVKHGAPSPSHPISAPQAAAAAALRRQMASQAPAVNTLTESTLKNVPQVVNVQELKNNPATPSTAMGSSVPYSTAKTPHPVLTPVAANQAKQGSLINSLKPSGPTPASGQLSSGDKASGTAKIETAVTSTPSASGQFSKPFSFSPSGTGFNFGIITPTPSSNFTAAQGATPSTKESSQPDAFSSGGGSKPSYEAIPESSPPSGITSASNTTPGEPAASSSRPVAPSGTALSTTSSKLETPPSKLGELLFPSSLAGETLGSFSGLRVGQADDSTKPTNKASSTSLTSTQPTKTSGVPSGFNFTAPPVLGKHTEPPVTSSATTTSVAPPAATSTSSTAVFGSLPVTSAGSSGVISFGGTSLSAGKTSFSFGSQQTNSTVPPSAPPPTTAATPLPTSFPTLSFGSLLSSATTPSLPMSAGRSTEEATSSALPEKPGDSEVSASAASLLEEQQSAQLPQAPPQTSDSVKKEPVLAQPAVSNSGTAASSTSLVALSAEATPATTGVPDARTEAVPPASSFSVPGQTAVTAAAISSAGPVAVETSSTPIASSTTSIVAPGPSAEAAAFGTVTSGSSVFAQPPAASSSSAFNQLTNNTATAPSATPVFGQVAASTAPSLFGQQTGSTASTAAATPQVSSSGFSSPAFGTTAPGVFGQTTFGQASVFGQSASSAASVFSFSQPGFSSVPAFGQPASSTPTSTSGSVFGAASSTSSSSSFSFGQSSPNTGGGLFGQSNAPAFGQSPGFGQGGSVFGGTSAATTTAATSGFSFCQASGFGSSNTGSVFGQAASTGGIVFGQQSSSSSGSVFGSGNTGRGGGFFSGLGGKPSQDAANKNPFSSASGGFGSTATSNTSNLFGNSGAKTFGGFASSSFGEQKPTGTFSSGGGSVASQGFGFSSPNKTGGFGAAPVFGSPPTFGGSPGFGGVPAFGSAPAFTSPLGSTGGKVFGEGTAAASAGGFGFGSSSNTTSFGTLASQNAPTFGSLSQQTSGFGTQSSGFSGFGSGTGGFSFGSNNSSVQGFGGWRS
row,effect of a mutation on the interaction,Variant
1,disrupting interaction,MATDSWALAVDEQEAAAESLSNLHLKEEKIKPDTNGAVVKTNANAEKTDEEEKEDRAAQSLLNKLIRSNLVDNTNQVEVLQRDPNSPLYSVKSFEELRLKPQLLQGVYAMGFNRPSKIQENALPLMLAEPPQNLIAQSQSGTGKTAAFVLAMLSQVEPANKYPQCLCLSPTYELALQTGKVIEQMGKFYPELKLAYAVRGNKLERGQKISEQIVIGTPGTVLRWCSKLKFIDPKKIKVFVLDEADVMIATQGHQDQSIRIQRMLPRNCQMLLFSATFEDSVWKFAQKVVPDPNVIKLKREEETLDTIKQYYVLCSSRDEKFQALCNLYGAITIAQAMIFCHTRKTASWLAAELSKEGHQVALLSGEMMVEQRAAVIERFREGKEKVLVTTNVCARGIDVEQVSVVINFDLPVDKDGNPDNETYLHRIGRTGRFGKRGLAVNMVDSKHSMNILNRIQEHFNKKIERLDTDDLDEIEKIAN [D223R]
2,disrupting interaction,MATDSWALAVDEQEAAAESLSNLHLKEEKIKPDTNGAVVKTNANAEKTDEEEKEDRAAQSLLNKLIRSNLVDNTNQVEVLQRDPNSPLYSVKSFEELRLKPQLLQGVYAMGFNRPSKIQENALPLMLAEPPQNLIAQSQSGTGKTAAFVLAMLSQVEPANKYPQCLCLSPTYELALQTGKVIEQMGKFYPELKLAYAVRGNKLERGQKISEQIVIGTPGTVLDWCSKLKFIDPKKIKVFVLDEADVMIATQGHQDQSIRIQAMLPRNCQMLLFSATFEDSVWKFAQKVVPDPNVIKLKREEETLDTIKQYYVLCSSRDEKFQALCNLYGAITIAQAMIFCHTRKTASWLAAELSKEGHQVALLSGEMMVEQRAAVIERFREGKEKVLVTTNVCARGIDVEQVSVVINFDLPVDKDGNPDNETYLHRIGRTGRFGKRGLAVNMVDSKHSMNILNRIQEHFNKKIERLDTDDLDEIEKIAN [R262A]
3,disrupting interaction,MATDSWALAVDEQEAAAESLSNLHLKEEKIKPDTNGAVVKTNANAEKTDEEEKEDRAAQSLLNKLIRSNLVDNTNQVEVLQRDPNSPLYSVKSFEELRLKPQLLQGVYAMGFNRPSKIQENALPLMLAEPPQNLIAQSQSGTGKTAAFVLAMLSQVEPANKYPQCLCLSPTYELALQTGKVIEQMGKFYPELKLAYAVRGNKLERGQKISEQIVIGTPGTVLDWCSKLKFIDPKKIKVFVLDEADVMIATQGHQDQSIDIQRMLPRNCQMLLFSATFEDSVWKFAQKVVPDPNVIKLKREEETLDTIKQYYVLCSSRDEKFQALCNLYGAITIAQAMIFCHTRKTASWLAAELSKEGHQVALLSGEMMVEQRAAVIERFREGKEKVLVTTNVCARGIDVEQVSVVINFDLPVDKDGNPDNETYLHRIGRTGRFGKRGLAVNMVDSKHSMNILNRIQEHFNKKIERLDTDDLDEIEKIAN [R259D]
4,disrupting interaction,MATDSWALAVDEQEAAAESLSNLHLKEEKIKPDTNGAVVKTNANAEKTDEEEKEDRAAQSLLNKLIRSNLVDNTNQVEVLQRDPNSPLYSVKSFEELRLKPQLLQGVYAMGFNRPSKIQENALPLMLAEPPQNLIAQSQSGTGKTAAFVLAMLSQVEPANKYPQCLCLSPTYELALQTGKVIEQMGKFYPELKLAYAVRGNKLERGQKISEQIVIGTPGTVLDWCSKLKFIDPKKIKVFVLDEADVMIATQGHQDQSARIQRMLPRNCQMLLFSATFEDSVWKFAQKVVPDPNVIKLKREEETLDTIKQYYVLCSSRDEKFQALCNLYGAITIAQAMIFCHTRKTASWLAAELSKEGHQVALLSGEMMVEQRAAVIERFREGKEKVLVTTNVCARGIDVEQVSVVINFDLPVDKDGNPDNETYLHRIGRTGRFGKRGLAVNMVDSKHSMNILNRIQEHFNKKIERLDTDDLDEIEKIAN [I258A]
